In US20180044434A1 (PUBLIC UNIVERSITY CORPORATION YOKOHAMA CITY UNIVERSITY, published 2018):
Substitutions are numbered along the chain they refer to. Like-named read-outs stand apart in the source and are kept apart here.

How the values were obtained:
[1] = molecular target: T1, full-length recombinant human PAD4 (human, UniProt Q9UM07 1-663); assay: ELISA, immobilized human PAD4
T1 construct: Full-length recombinant; also called peptidylarginine deiminase 4

[2] = molecular target: T1, full-length recombinant human PAD4; assay: ELISA, immobilized human PAD4; remark: listed apart in the source
[3] = molecular target: T1, full-length recombinant human PAD4; assay: ELISA, immobilized human PAD4; remark: listed apart in the source
[4] = molecular target: T1, full-length recombinant human PAD4; assay: ELISA, immobilized human PAD4; remark: listed apart in the source
[5] = molecular target: T1, full-length recombinant human PAD4; assay: SPR (Biacore T200), antibody captured, human PAD4 analyte
Description: The humanized anti-PAD4 antibodies derived from G8 and H7 were subjected to Biacore (GE Healthcare, Biacore T200) assay to evaluate their affinity. At that time, the combination of the frameworks was such that the H-chain framework was H4.00 and the L-chain framework was L4.29. The class of each antibody used was IgG1κ. Full-length recombinant human PAD4 was used as an antigen. A Human Antibody Capture kit (GE Healthcare, BR-1008-39) was used for the affinity assay. Specifically, in accordance with the standard protocol provided by the manufacture, NHS/EDC was used and an amine coupling method, in which a free carboxyl group is fixed on a surface of a CM5 chip, was used to immobilize a rabbit anti-human polyclonal antibody on the surface of a CM5 chip. Next, the humanized anti-PAD4 antibodies were each captured by the rabbit anti-human polyclonal antibody. Human PAD4 at each concentration was subjected to Biacore T200 measurement to create a kinetic sensorgram.

T1 sequence (Q9UM07 whole entry): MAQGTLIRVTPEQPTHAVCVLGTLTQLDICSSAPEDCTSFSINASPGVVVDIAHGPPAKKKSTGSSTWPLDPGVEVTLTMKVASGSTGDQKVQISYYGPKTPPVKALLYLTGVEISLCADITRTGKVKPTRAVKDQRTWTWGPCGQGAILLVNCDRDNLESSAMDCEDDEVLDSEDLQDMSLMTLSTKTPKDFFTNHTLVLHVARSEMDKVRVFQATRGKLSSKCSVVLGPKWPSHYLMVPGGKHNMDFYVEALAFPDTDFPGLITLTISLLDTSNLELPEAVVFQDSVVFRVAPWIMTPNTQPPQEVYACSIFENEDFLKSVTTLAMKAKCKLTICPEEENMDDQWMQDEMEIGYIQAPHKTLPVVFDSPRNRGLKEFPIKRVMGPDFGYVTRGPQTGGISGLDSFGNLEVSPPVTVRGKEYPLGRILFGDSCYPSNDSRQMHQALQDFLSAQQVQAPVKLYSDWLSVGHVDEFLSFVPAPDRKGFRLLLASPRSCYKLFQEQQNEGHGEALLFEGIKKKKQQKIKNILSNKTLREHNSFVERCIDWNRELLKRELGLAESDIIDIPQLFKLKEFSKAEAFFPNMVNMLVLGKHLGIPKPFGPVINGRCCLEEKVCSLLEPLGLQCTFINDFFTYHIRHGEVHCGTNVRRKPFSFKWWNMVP

B1: H7-derived, humanized anti-PAD4 antibody (IgG4A) (antibody)
heavy: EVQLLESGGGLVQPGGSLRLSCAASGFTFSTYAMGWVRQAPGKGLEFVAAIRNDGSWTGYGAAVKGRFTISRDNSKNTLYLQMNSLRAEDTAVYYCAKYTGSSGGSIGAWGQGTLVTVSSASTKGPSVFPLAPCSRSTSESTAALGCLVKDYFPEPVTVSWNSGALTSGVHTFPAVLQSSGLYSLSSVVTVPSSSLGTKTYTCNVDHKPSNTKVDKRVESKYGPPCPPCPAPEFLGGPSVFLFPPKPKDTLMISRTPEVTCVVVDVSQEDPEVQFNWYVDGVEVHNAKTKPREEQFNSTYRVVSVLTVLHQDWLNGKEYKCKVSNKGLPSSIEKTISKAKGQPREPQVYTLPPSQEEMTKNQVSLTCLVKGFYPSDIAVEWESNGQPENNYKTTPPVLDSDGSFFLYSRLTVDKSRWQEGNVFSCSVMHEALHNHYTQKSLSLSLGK
light: SYELTQPPSVSVSPGQTARITCSGGSGRYYYGWYQQKPGQAPVTVIYSSTHRPSGIPERFSGSNSGSTTTLTISGVQAEDEADYYCGTADSSSYVFGGGTKLTVLGQPKAAPSVTLFPPSSEELQANKATLVCLISDFYPGAVTVAWKADSSPVKAGVETTTPSKQSNNKYAASSYLSLTPEQWKSHRSYSCQVTHEGSTVEKTVAPTECS
notes: it may be this one; also called humanized anti-PAD4 antibody (IgG4A) derived from H7
With B1 the “EC50 (read off the curve)” value [1] was ~4 ng/mL.

B2: humanized anti-PAD4 antibody derived from G8, VH H4.00 / VL L4.00 (antibody, human IgG1, kappa, V domains shown)
VH: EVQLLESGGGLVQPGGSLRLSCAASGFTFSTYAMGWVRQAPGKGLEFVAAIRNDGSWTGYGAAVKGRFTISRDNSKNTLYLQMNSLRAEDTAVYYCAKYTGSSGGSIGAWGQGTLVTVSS
VL: SYELTQPPSVSVSPGQTARITCSGGNRNYYYGWYQQKPGQAPVLVIYANDKRPSGIPERFSGSSSGTTVTLTISGVQAEDEADYYCGTADTGKYVFGGGTKLTVLG
notes: IgG1 kappa; also called G8 H4.00/L4.00
For B2, the “O.D. 490/630 at 0.0078125 µg/mL” value [2] was 0.131, the “O.D. 490/630 at 0.015625 µg/mL” value [2] was 0.247 and the “O.D. 490/630 at 0.03125 µg/mL” value [2] was 0.454. For the same binder, the “O.D. 490/630 at 0.0625 µg/mL” value [2] was 0.806, the “O.D. 490/630 at 0.125 µg/mL” value [2] was 1.31 and the “O.D. 490/630 at 0.25 µg/mL” value [2] was 1.7. For the same binder, the “O.D. 490/630 at 0.5 µg/mL” value [2] was 1.84, the “O.D. 490/630 at 1 µg/mL” value [2] was 1.88 and the “EC50 (read off the curve)” value [3] was ~80 ng/mL.

B3: Humanized Ab #G8-H4.00/L4.29 (antibody, human IgG1, kappa, V domains shown)
VH: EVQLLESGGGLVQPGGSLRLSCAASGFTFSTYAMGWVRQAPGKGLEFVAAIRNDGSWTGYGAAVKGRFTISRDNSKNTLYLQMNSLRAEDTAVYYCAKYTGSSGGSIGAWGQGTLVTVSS
VL: B2 VL with L44T, S64N, T67S, V69T
notes: also called humanized anti-PAD4 antibody derived from G8 (IgG1 kappa); G8 VH H4.00 / VL L4.29
For B3, the “O.D. 490/630 at 0.0078125 µg/mL” value [2] was 1.2, the “O.D. 490/630 at 0.015625 µg/mL” value [2] was 1.55 and the “O.D. 490/630 at 0.03125 µg/mL” value [2] was 1.88. The “O.D. 490/630 at 0.0625 µg/mL” value [2] was 1.88, the “O.D. 490/630 at 0.125 µg/mL” value [2] was 1.85 and the “O.D. 490/630 at 0.25 µg/mL” value [2] was 1.84. For the same binder, the “O.D. 490/630 at 0.5 µg/mL” value [2] was 1.82, the “O.D. 490/630 at 1 µg/mL” value [2] was 1.8 and the “EC50 (read off the curve)” value [4] was ~2 ng/mL. For the same binder, the “O.D. 490/630 at 0 µg/mL (blank)” value [4] was 0.069, the “O.D. 490/630 at 0.000064 µg/mL” value [4] was 0.139 and the “O.D. 490/630 at 0.00032 µg/mL” value [4] was 0.287. For the same binder, the “O.D. 490/630 at 0.0016 µg/mL” value [4] was 0.851, the “O.D. 490/630 at 0.008 µg/mL” value [4] was 1.79 and the “O.D. 490/630 at 0.04 µg/mL” value [4] was 2.12. The “O.D. 490/630 at 0.2 µg/mL” value [4] was 2.1, the “O.D. 490/630 at 1 µg/mL” value [4] was 2.06 and the Kd [5] was 1.95 nM. The koff [5] was 0.0002 s⁻¹ and the kon [5] was 103000 M⁻¹ s⁻¹.
